Where two headings read alike, the source gives them in different places.
T1: human α7 nicotinic acetylcholine receptor with the ICD replaced by a short linker and a C-terminal Rho1D4 tag … (human, UniProt P36544 23-502, N-linked glycans at Asn23, Asn67 and Asn110)
T1 chain: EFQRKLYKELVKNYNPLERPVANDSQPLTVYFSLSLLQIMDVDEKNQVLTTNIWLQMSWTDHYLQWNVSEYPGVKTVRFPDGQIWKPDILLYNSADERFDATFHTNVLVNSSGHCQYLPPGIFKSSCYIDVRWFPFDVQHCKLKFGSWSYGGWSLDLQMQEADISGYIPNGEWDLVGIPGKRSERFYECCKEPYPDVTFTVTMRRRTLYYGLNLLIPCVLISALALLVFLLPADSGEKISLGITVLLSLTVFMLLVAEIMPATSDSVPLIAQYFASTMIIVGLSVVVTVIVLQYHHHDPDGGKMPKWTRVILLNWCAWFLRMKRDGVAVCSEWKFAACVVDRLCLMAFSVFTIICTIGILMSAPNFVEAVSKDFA


Columns and labels:
[1] = target: human α7 nicotinic acetylcholine receptor with the ICD replaced by a short linker and a C-terminal Rho1D4 tag (α7∆ICDcryo), reconstituted in MSP1E3D1 nanodiscs (human) (UniProt P36544); assay: cryo-EM structure; 1 µM α7 pentamer in MSP1E3D1 nanodiscs with 50 µM nanobody (50-fold excess), no nicotine (C4-Apo, E3-Apo)
[2] = target: human α7 nicotinic acetylcholine receptor with the ICD replaced by a short linker and a C-terminal Rho1D4 tag (α7∆ICDcryo), reconstituted in MSP1E3D1 nanodiscs (human) (UniProt P36544); assay: SPR; single-cycle kinetics, Biacore T200; α7-nanodiscs captured on anti-Rho tag antibody 1D4 immobilised on CM5; nanobodies injected (five increasing concentrations, 600 s each, 30 µl/min); buffer A (20 mM Tris, 250 mM NaCl) pH 8, 25 °C
[3] = target: human α7 nicotinic acetylcholine receptor with the ICD replaced by a short linker and a C-terminal Rho1D4 tag (α7∆ICDcryo), reconstituted in MSP1E3D1 nanodiscs (human) (UniProt P36544); assay: as above; remark: listed apart in the source
[4] = target: full-length human α7 nicotinic acetylcholine receptor fused to a Rho1D4 tag at its C-terminus (α7FLcryo) (human) (UniProt P36544); assay: cryo-EM structure; 1 µM α7 pentamer in MSP1E3D1 nanodiscs with 50 µM nanobody (50-fold excess) and 100 µM nicotine (C4-Nic, E3-Nic)
[5] = target: human α7 nicotinic acetylcholine receptor with the ICD replaced by a short linker and a C-terminal Rho1D4 tag (α7∆ICDcryo), reconstituted in MSP1E3D1 nanodiscs (human) (UniProt P36544); assay: cryo-EM structure; 1 µM α7 pentamer in MSP1E3D1 nanodiscs with a sub-saturating 10 µM nanobody, no nicotine (C4partial-Apo; 2D classification for E3)
[6] = target: T1, human α7 nicotinic acetylcholine …; assay: SPR; α7 prep 1
[7] = target: human α7 nicotinic acetylcholine receptor L247T mutant (human) (UniProt P36544)
[8] = target: human α7 nicotinic acetylcholine receptor with the ICD replaced by a short linker and a C-terminal Rho1D4 tag (α7∆ICDcryo), reconstituted in MSP1E3D1 nanodiscs (human) (UniProt P36544); assay: cryo-EM structure; 1 µM α7 pentamer in MSP1E3D1 nanodiscs with 50 µM nanobody (50-fold excess) and 100 µM nicotine (C4-Nic, E3-Nic)
[9] = target: T1, human α7 nicotinic acetylcholine …; assay: SPR; α7 prep 1
[10] = target: T1, human α7 nicotinic acetylcholine …; assay: SPR; α7 prep 1, + 100 µM nicotine
[11] = target: T1, human α7 nicotinic acetylcholine …; assay: SPR; α7 prep 2
[12] = target: T1, human α7 nicotinic acetylcholine …; assay: SPR; α7 prep 1, + 100 µM nicotine
[13] = target: T1, human α7 nicotinic acetylcholine …; assay: SPR; α7 prep 2

Chain of human α7 nicotinic acetylcholine receptor with the ICD replaced by a short linker and a C-terminal Rho1D4 tag (α7∆ICDcryo), reconstituted in MSP1E3D1 nanodiscs (P36544 23-502): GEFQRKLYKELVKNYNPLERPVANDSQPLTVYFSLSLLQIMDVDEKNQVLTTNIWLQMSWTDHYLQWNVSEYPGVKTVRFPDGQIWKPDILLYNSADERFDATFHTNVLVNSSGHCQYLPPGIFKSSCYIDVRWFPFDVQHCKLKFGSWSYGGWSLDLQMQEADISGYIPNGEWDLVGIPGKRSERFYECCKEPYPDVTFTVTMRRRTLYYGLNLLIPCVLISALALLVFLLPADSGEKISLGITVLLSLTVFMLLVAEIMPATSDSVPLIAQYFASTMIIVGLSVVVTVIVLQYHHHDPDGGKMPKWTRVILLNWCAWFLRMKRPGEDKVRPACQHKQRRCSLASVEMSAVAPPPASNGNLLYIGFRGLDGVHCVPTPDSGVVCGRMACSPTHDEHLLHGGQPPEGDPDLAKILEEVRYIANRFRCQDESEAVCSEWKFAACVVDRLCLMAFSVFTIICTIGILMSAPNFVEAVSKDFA

| Molecule | Kd [2] [nM] | koff [2] [s⁻¹] | kon [2] [M⁻¹ s⁻¹] | stoichiometry N (nanobodies per receptor molecule) [2] | stoichiometry N (nanobodies per α7 pentamer) [1] | koff [11] [s⁻¹] | Kd [13] [nM] | also measured |
| --- | --- | --- | --- | --- | --- | --- | --- | --- |
| human α7 nicotinic acetylcholine receptor with the ICD replaced by a short linker and a C-terminal Rho1D4 tag (α7∆ICDcryo), reconstituted in MSP1E3D1 nanodiscs (from UniProt P36544 23-502) |  |  |  |  |  |  |  | stoichiometry N [1]: 5 |
| nanobody C4 (VHH) VHH: QVQLVESGGGLVQAGGSLKLSCAASGFTFAHYAMVWFRQAPGKEREFVAGISWSGASTYYASSVKGRFTISRDNAKNTVYLQMNSLKPEDTAVYYVAAARFGVGVDDDYSYWGQGTQVTVSS | 0.2 | 0.00024 | 1.2e+06 | < 3 | 5 |  |  | Kd [3]: 0.1 nM; stoichiometry N (nanobodies per α7 pentamer) [4]: 5; stoichiometry N (nanobodies per α7 pentamer) [5]: 3 |
| nanobody E3 (VHH) VHH: AVQLQASGGGLVQAGDSLRLSCAASGGTFSHYAVGWFRQAPGKEREFVAAISWSGRSTSFANSVKGRFTISRDSAKNTAYLQMNNLKPEDTAVYCCAPARFGTGSAARDEYDDCGQGTQVTVSS | 1 | 0.0119 | 1.1e+07 | < 3 | 5 | 0.019 |  | koff [6]: 0.013 s⁻¹; increase of the holding current during pre-application of E3 in the absence of ACh (direct activation, TEVC, Xenopus oocytes) (% of the response to 0.3 µM ACh) [7]: 6; stoichiometry N (nanobodies per α7 pentamer) [8]: 5; Kd [9]: 8 nM; koff [10]: 0.0085 s⁻¹; Kd [12]: 7.4 nM |
| nanobody E3 E110Q (VHH) VHH: AVQLQASGGGLVQAGDSLRLSCAASGGTFSHYAVGWFRQAPGKEREFVAAISWSGRSTSFANSVKGRFTISRDSAKNTAYLQMNNLKPEDTAVYCCAPARFGTGSAARDQYDDCGQGTQVTVSS |  |  |  |  |  | 0.011 | 0.62 |  |
| nanobody E3 R56A (VHH) VHH: AVQLQASGGGLVQAGDSLRLSCAASGGTFSHYAVGWFRQAPGKEREFVAAISWSGASTSFANSVKGRFTISRDSAKNTAYLQMNNLKPEDTAVYCCAPARFGTGSAARDEYDDCGQGTQVTVSS |  |  |  |  |  | 0.01 | 1.5 |  |

From publication PMC10520083 (2023)
